Reference: publication PMC10100024 (British Journal of Pharmacology, 2022)

Key:
Assay in all cases: FRET or BRET
[1] = biological target: T1, pplss-3HA-hCB1 receptor S462A/S464A/T465A (T) (human, UniProt P21554 1-472, S462A | S464A | T465A)
[2] = biological target: T2, pplss-3HA-hCB1 receptor S462A/T465A (D2) (human, UniProt P21554 1-472, S462A | T465A)
[3] = biological target: T3, pplss-3HA-hCB1 receptor T465A/S468A (D4) (human, UniProt P21554 1-472, T465A | S468A)
[4] = biological target: T4, pplss-3HA-hCB1 receptor, wild type (human, UniProt P21554 1-472)
[5] = biological target: T5, pplss-3HA-hCB1 receptor S464A/T467A (D3) (human, UniProt P21554 1-472, S464A | T467A)
[6] = biological target: T6, pplss-3HA-hCB1 receptor S425A/S429A (D1) (human, UniProt P21554 1-472, S425A | S429A)
[7] = biological target: T1, pplss-3HA-hCB1 receptor …; remark: listed apart in the source
[8] = biological target: T2, pplss-3HA-hCB1 receptor S462A/T465A (D2); remark: listed apart in the source
[9] = biological target: T3, pplss-3HA-hCB1 receptor T465A/S468A (D4); remark: listed apart in the source
[10] = biological target: T4, pplss-3HA-hCB1 receptor, wild type; remark: listed apart in the source
[11] = biological target: T5, pplss-3HA-hCB1 receptor S464A/T467A (D3); remark: listed apart in the source
[12] = biological target: T6, pplss-3HA-hCB1 receptor S425A/S429A (D1); remark: listed apart in the source

B1: Nluc-(human)-Arrestin-2-Sp1 (natural protein, UniProt P49407 1-418, looked up)
chain: MGDKGTRVFKKASPNGKLTVYLGKRDFVDHIDLVDPVDGVVLVDPEYLKERRVYVTLTCAFRYGREDLDVLGLTFRKDLFVANVQSFPPAPEDKKPLTRLQERLIKKLGEHAYPFTFEIPPNLPCSVTLQPGPEDTGKACGVDYEVKAFCAENLEEKIHKRNSVRLVIRKVQYAPERPGPQPTAETTRQFLMSDKPLHLEASLDKEIYYHGEPISVNVHVTNNTNKTVKKIKISVRQYADICLFNTAQYKCPVAMEEADDTVAPSSTFCKVYTLTPFLANNREKRGLALDGKLKHEDTNLASSTLLREGANREILGIIVSYKVKVKLVVSRGGLLGDLASSDVAVELPFTLMHPKPKEEPPHREVPENETPVDTNLIELDTNDDDIVFEDFARQRLKGMKDDKEEEEDGTGSPQLNNR
[1]
  initial rate of translocation: 3.32e-05 ΔBRET ratio per second
  steady state (ΔBRET ratio): 0.014 ΔBRET ratio
  translocation half time: 354 s
[2]
  initial rate of translocation: 3.77e-05 ΔBRET ratio per second
  steady state (ΔBRET ratio): 0.012 ΔBRET ratio
  translocation half time: 286 s
[3]
  initial rate of translocation: 7.31e-05 ΔBRET ratio per second
  steady state (ΔBRET ratio): 0.022 ΔBRET ratio
  translocation half time: 210 s
[4]
  initial rate of translocation: 0.000136 ΔBRET ratio per second
  steady state (ΔBRET ratio): 0.036 ΔBRET ratio
  translocation half time: 185 s
[5]
  initial rate of translocation: 3.06e-05 ΔBRET ratio per second
  steady state (ΔBRET ratio): 0.014 ΔBRET ratio
  translocation half time: 354 s
[6]
  initial rate of translocation: 5.81e-05 ΔBRET ratio per second
  steady state (ΔBRET ratio): 0.036 ΔBRET ratio
  translocation half time: 569 s
[7]
  Emax of net translocation (%WT): 25.6 %WT
[8]
  Emax of net translocation (%WT): 32.3 %WT
[9]
  Emax of net translocation (%WT): 61.6 %WT
[10]
  Emax of net translocation (%WT): 100 %WT
[11]
  Emax of net translocation (%WT): 32.9 %WT
[12]
  Emax of net translocation (%WT): 72.3 %WT
